The source of these data is patent US20190389956A1 (INSTITUTE OF BIOPHYSICS CHINESE ACADEMY OF SCIENCES, published 2019).

Assay [1] concerns the target T1, human IFNAR1 extracellular and transmembrane domains fused with GFP, expressed on HEK293T cells … (human, UniProt P17181 28-457).
T1 construct: domain: extracellular domains and transmembrane domains; the intracellular domain is replaced by GFP; also called R1-WT; HEK293T cells stably expressing IFNAR1; not shown: C-terminal GFP (with linker) from the pEGFP vector
T1 sequence (looked up): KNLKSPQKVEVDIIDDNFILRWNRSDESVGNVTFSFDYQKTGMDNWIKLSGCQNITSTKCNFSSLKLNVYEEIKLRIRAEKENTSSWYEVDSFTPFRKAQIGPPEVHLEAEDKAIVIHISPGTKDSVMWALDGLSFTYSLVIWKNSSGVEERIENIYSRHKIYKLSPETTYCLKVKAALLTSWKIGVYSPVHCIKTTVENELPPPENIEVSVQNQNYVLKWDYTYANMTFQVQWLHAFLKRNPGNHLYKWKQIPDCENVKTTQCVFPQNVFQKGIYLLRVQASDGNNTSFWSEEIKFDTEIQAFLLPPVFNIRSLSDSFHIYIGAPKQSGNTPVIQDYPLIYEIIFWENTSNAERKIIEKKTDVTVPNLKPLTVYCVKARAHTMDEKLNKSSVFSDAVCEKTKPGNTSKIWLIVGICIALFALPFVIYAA
The experiment in a line: flow cytometry screening on HEK293T cells expressing human IFNAR1 extracellular domain-GFP. An excerpt: Hybridoma secreting IFNAR1 antibody can be screened by analyzing GFP and PE signals of cells by flow cytometry. Monoclonal IgG antibodies of each well were screened by a reporter cell line stably expressing the extracellular domain of IFNAR1. Once extensive hybridoma growth occurs, hybridoma cells are usually screened after 10-14 days. Hybridoma cells secreting IFNAR1 antibody are subcloned by limited dilution method and were screened again. If still positive for human IFNAR1, then the monoclonal antibody is subcloned at least twice by limited dilution. Then the stable subclones are cultured in vitro, and a small amount of antibodies are produced in tissue culture medium for characterization.
The day before screening, 100 μL supernatant was aspirated from 96-well cell culture plate into a 96-well U bottom plate. 100 μL fresh 1×HAT RPMI medium was added to the original well for continued culture. HEK293T cells stably expressing IFNAR1 were harvested and were subsequently added to a 96-well U-bottom plate at a density of 10,000 cells/200 μL/well. After centrifugation at 2200 rpm for 3 min, the supernatant was discarded and the cell pellet was collected and re-suspended with 100 μL hybridoma supernatant at 4° C. for 30 min. […] Finally, the re-suspended cells were analyzed using a flow cytometer Guava (Millipore) for cellular GFP and PE signal. […]
Background: In flow cytometry, cells or beads pass a laser one at a time.

The target of assay [2] is T2, human IFNAR1 truncation lacking extracellular SD1, fused with GFP, expressed on HEK293T cells (human, UniProt P17181 28-457).
T2 construct: domain: extracellular and transmembrane domains lacking SD1 (32-126); Made from pEGFP-humanIFNAR1EC by overlap PCR; transiently expressed on HEK293T cells; also called R1-Δ1; RI-Δ1; not shown: C-terminal GFP (with linker) from the pEGFP vector
T2 sequence (looked up): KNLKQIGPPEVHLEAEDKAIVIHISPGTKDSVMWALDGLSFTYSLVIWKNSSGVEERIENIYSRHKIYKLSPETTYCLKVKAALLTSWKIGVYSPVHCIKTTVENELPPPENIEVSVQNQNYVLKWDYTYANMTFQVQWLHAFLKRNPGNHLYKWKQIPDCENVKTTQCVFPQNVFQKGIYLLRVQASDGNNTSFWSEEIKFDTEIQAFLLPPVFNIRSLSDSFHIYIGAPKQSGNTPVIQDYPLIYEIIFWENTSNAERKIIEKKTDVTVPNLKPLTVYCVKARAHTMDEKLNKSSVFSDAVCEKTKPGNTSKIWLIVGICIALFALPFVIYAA
The experiment in a line: flow cytometry on transfected HEK293T cells, PE anti-mouse IgG.

B1: mouse anti-human IFNAR1 monoclonal antibody 10C2 (antibody, V domains shown)
VH: QIQLVQSGPELKKPGETVKISCKASGYTFTNYGMNWVKQAPGKGLKWMGWINTYTGEPTYSDDFKGRFAFSLETSASTANLQINNLKDEDAATYFCAREGAIYYGDYVYFGVWGAGTTVTVSS
VL: DIVMTQSQKFMSTSVGDRVSITCKASQNVGTAVAWYQEKPGQSPKLLIYSASNRYTGVPDRFTGSGSGTAFTLTISNMQSEDLADYFCQQYYNYPLTFGAGTKLEVKR
notes: Mouse monoclonal IgG from a hybridoma, detected with anti-mouse IgG; also called antibody secreted by hybridoma cell line 10C2 (CGMCC No. 12542)
Regarding B1, the binding result is “binds” in assay [1] and “no binding (tested: 5 µg/ml (methods of Example 2))” in assay [2].

B2: mouse anti-human IFNAR1 monoclonal antibody 10C9 (antibody, V domains shown)
VH: QIQLVQSGPELKKPGETVKISCKASGYTFTNYGVNWMKQAPGKGLKWMGWINTYTGEPTYADDFKGRFAFSLETSASTAYLQINNLKNEDTATYFCAREGVYYYGDWAWLAYWGQGTLVTVSA
VL: DIVMTQSQKFISTSVGDRVSVTCKASQNVGTNVAWYQQKPGQSPKTLIYSTSYRYNGVPDRFTGSGSGTDFTLTISNVQSEDLAEYFCQQYNSYYTFGGGTKLEIK
notes: Mouse monoclonal IgG from a hybridoma, detected with anti-mouse IgG; also called antibody secreted by hybridoma cell line 10C9 (CGMCC No. 12543)
As for B2, the values for the binding result in assay [1] and in assay [2] were “binds” and “no binding (tested: 5 µg/ml (methods of Example 2))”, respectively.
